Measured values reported in FireProtDB (doi:10.1016/j.csbj.2015.03.010).

B1: Arabinogalactan endo-beta-1,4-galactanase, P48842 (parent)
chain: MFASLLLAALPLLTHAALTYRGADISSLLLLEDEGYSYKNLNGQTQALETILADAGINSIRQRVWVNPSDGSYDLDYNLELAKRVKAAGMSLYLDLHLSDTWADPSDQTTPSGWSTTDLGTLKWQLYNYTLEVCNTFAENDIDIEIISIGNEIRAGLLWPLGETSSYSNIGALLHSGAWGVKDSNLATTPKIMIHLDDGWSWDQQNYFYETVLATGELLSTDFDYFGVSYYPFYSASATLASLKTSLANLQSTYDKPVVVVETNWPVSCPNPAYAFPSDLSSIPFSVAGQQEFLEKLAAVVEATTDGLGVYYWEPAWIGNAGLGSSCADNLMVDYTTDEVYESIETLGEL

Variants of: B1
Conditions: Aspergillus aculeatus; pH 4.5; Thermal; DSC; sodium acetate buffer 50 mM; transition: 2; reversible: no; structure 1FHL; whole UniProt chain shown

Variant | Tm | change of melting temperature, mutant - wild type (higher = more stable)
G120D A172R | 60.7 °C | -0.18 °C
Y311F | 61.2 °C | 0.34 °C
S201D Q204T | 61 °C | 0.11 °C
G322A | 62 °C | 1.1 °C
D74N | 61.5 °C | 0.65 °C
D198N | 61.4 °C | 0.53 °C
